Laboratory results reported in patent US20210040206A1 (OSE IMMUNOTHERAPEUTICS, published 2021).

Key:
[1] = molecular target: T1, SIRPa V7 (SNP14 + ?) recombinant protein, extracellular domain fused with mouse Fc from IgG2a (human; mouse, UniProt P78324 31-373); assay: ELISA on immobilised SIRPa variant-mouse Fc, donkey anti-human IgG peroxidase, TMB 450 nm; given as ED50
T1 construct: not shown: mouse Fc from IgG2a
Description: (§1) FIG. 4. SIRPa variants binding study using anti-human SIRPa v1 antibody and Kwar antibody by Elisa. Assessment of the binding by ELISA on immobilized SIRPa mutated variants (SIRPa from v1 to v8, see Table 2 in example 1) linked to the mouse Fc domain. Anti-human SIRPa v1 antibody and Kwar antibody (known to bind both SIRPa v1 and SIRPa v2) were compared for their ability to bind the different SIRPa mutated variants.
(§2) Method: The binding activity of the anti-SIRPa antibodies was assessed by ELISA. For the ELISA assay, the in-house anti-human SIRPa v1 antibody and Kwar antibody were tested on 8 different mutated hSIRPa (SIRPA v1 to v8; see table 2). The different variants of mutated hSIRPa (SIRPa v1 to v8) were immobilized on plastic at 0.5 μg/ml in carbonate buffer (pH9.2) and the purified antibody was added to measure binding.

[2] = molecular target: T2, SIRPa V4 (SNP8) recombinant protein, extracellular domain fused with mouse Fc from IgG2a (human; mouse, UniProt P78324 31-373); assay: as above
T2 construct: not shown: mouse Fc from IgG2a
Description: as §1, §2

[3] = molecular target: T3, SIRPa V1 recombinant protein (extracellular domain fused with mouse Fc from IgG2a) (human; mouse, UniProt P78324 31-373); assay: as above
T3 construct: not shown: mouse Fc from IgG2a
Description: as §1, §2

[4] = molecular target: T4, SIRPa V6 (SNP12 + 13) recombinant protein, extracellular domain fused with mouse Fc from IgG2a (human; mouse, UniProt P78324 31-373); assay: as above
T4 construct: SNP13 is printed as 101 N without a change; not shown: mouse Fc from IgG2a
Description: as §1, §2

[5] = molecular target: T5, SIRPa V5 (SNP9 + 10 + 11) recombinant protein, extracellular domain fused with mouse Fc from IgG2a (human; mouse, UniProt P78324 31-373); assay: as above
T5 construct: SNP11 (97 T) is silent; not shown: mouse Fc from IgG2a
Description: as §1, §2

[6] = molecular target: T6, SIRPa V3 (SNP1 + 2 + 3 + 4 + 5 + 6) recombinant protein, extracellular domain fused with mouse Fc from IgG2a (human; mouse, UniProt P78324 31-373); assay: as above
T6 construct: SNP3 (51 A) is silent; not shown: mouse Fc from IgG2a
T6 chain: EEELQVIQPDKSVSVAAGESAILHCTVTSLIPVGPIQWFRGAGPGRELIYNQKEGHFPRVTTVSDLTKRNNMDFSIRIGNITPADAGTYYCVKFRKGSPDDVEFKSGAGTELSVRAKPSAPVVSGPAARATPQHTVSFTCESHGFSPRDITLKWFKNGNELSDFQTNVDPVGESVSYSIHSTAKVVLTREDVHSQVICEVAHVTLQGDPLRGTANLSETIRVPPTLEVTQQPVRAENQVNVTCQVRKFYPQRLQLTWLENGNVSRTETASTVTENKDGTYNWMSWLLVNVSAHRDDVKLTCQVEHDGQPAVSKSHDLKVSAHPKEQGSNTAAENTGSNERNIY
Description: as §1, §2

[7] = molecular target: T7, human SIRPa v1 expressed by blood monocytes or monocyte-derived cells (V1/V1 donors) (human, UniProt P78324 31-504); assay: FACS competition on human monocytes of V1/V1 donors; blocked ligand: biotinylated CD47Fc, revealed with streptavidin-PE
T7 construct: donors were typed on exon 3; also called variant 1
Description: (§3) METHOD: Human monocytes (purified by elutriation from human PBMC at DTC platform, Nantes, and frozen in DMSO at 10M/ml at −80° C. or liquid nitrogen) were thawed in 40 mL complete RPMI medium. Then immediately centrifuged at 1000 rpm during 10 minCells are resuspended in 10 mL of RPMI medium and counted on Malassez cell. Frozen human monocytes are thawed, diluted samples are added and biotinylated CD47Fc is added afterwards. […] The following protocol was applied: —Put 100,000 human monocytes per well on V-bottom P96 plate; —Centrifuge 1 min at 2500 rpm and empty wells by flicking the plate; —Wash cells 2 times with 200 μL PSE (Centrifuge 1 min at 2500 rpm and empty wells); —Prepare 8 dilutions of the sample beginning with 10 μg/mL (concentrated 2×, final concentration 5 μg/mL) and diluting by steps of 3; —Add 12.5 μL of sample/well on cells and mix; —Incubate 15 min on ice; —Prepare CD47Fc biotinylated solution concentrated 2×, determined in function of paragraph and add 12.5 μL of this solution/well on cells and mix.—Incubate 30 min on ice; —Add 175 μL PSE/w-Centrifuge 1 min at 2500 rpm and empty wells; —Wash cells 2 times with 200 μL PSE (Centrifuge 1 min at 2500 rpm and empty wells). An intermediate concentration is chosen for CD47Fc biotinylated. Here, 5 μg/mL CD47Fc biotinylated are took for the antagonist test. […]

[8] = molecular target: T8, human SIRPa v2 expressed by blood monocytes (V2/V2 donors) (human, UniProt P78324 31-504); assay: FACS competition on human monocytes of V2/V2 donors; blocked ligand: biotinylated CD47Fc, revealed with streptavidin-PE
T8 construct: also called variant 2; V2 protein
Description: as §3

T7 sequence (P78324 31-504 limits assumed): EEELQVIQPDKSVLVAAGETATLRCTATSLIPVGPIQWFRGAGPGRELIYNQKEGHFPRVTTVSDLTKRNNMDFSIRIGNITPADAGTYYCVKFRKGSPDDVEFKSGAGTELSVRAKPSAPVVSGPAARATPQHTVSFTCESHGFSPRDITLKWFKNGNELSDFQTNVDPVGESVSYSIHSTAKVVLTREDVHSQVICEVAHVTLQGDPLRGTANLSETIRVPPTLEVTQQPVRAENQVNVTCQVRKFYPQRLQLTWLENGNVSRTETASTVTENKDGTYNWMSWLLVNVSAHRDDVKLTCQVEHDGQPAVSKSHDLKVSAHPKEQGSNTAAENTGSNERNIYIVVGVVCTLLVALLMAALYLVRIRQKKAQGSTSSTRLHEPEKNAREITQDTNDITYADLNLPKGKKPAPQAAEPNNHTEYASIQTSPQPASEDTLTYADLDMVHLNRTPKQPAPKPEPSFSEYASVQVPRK

EC50 [1]: 0.54 ng/mL
EC50 [2]: 0.71 ng/mL
EC50 [3]: 0.78 ng/mL
EC50 [4]: 0.72 ng/mL
EC50 [5]: 0.63 ng/mL
EC50 [6]: 0.99 ng/mL
IC50 (read off the curve) [7]: ~0.09 µg/mL
IC50 (read off the curve) [8]: ~0.2 µg/mL
B1: in-house anti-human SIRPa v1 antibody (antibody, human IgG4, V domains shown)
VH: EVQLVQSGAEVKKPGESLRISCKASGYSFTSYWVHWVRQMPGKGLEWMGNIDPSDSDTHYSPSFQGHVTLSVDKSISTAYLQLSSLKASDTAMYYCVRGGTGTLAYFAYWGQGTLVTVSS
VL: DVVMTQSPLSLPVTLGQPASISCRSSQSLVHSYGNTYLYWFQQRPGQSPRLLIYRVSNRFSGVPDRFSGSGSGTDFTLKISRVEAEDVGVYYCFQGTHVPYTFGGGTKVEIK
notes: also called in-house anti-SIRPa v1 antibody; in-house antibody
